{"source": "FireProtDB (doi:10.1093/oxfordjournals.jbchem.a021544)", "proteins": {"B1": {"name": "Lysozyme C wild type, P61626 (protein)", "chain": "MKALIVLGLVLLSVTVQGKVFERCELARTLKRLGMDGYRGISLANWMCLAKWESGYNTRATNYNAGDRSTDYGIFQINSRYWCNDGKTPGAVNACHLSCSALLQDNIADAVACAKRVVRDPQGIRAWVAWRNRCQNRDVRQYVQGCGV"}}, "details": "Homo sapiens; pH 2.7; Thermal; DSC; glycine 0.05 M; reversible: yes; whole UniProt chain shown"}
{"protein": "B1", "values": [{"measurement": "Tm", "value": 64.9, "unit": "°C"}, {"measurement": "heat capacity change of unfolding", "value": 1.58, "unit": "kcal/mol/K"}, {"measurement": "unfolding enthalpy (calorimetric)", "value": 114, "unit": "kcal/mol"}, {"measurement": "unfolding enthalpy (van 't Hoff)", "value": 120, "unit": "kcal/mol"}]}
